Measured values: paper PMC3533786 (Molecular Microbiology, 2012)

How the values were obtained:
[1] = biological target: Rap1a (Resistance associated protein 1a), without its N-terminal signal peptide, His6-tagged (Serratia marcescens Db10); experiment: SEC
[2] = biological target: Rap2a (Resistance associated protein 2a), without its N-terminal signal peptide, His6-tagged (Serratia marcescens Db10); experiment: SEC
[3] = biological target: Rap2b (Resistance associated protein 2b), without its N-terminal signal peptide, His6-tagged (Serratia marcescens Db10); experiment: SEC
[4] = biological target: Rap1a (Resistance associated protein 1a), without its N-terminal signal peptide, His6-tagged (Serratia marcescens Db10); experiment: SEC + other: quantitative in-gel SYPRO Orange staining
[5] = biological target: Tse1 (Pseudomonas aeruginosa) (UniProt Q9I2Q1); conditions: cited from earlier work
SEC = biological target: the molecule itself; experiment: SEC

## Rap1a (Resistance associated protein 1a), without its N-terminal signal peptide, His6-tagged (natural protein)
[1]
  stoichiometry N: 2

## Rap2a (Resistance associated protein 2a), without its N-terminal signal peptide, His6-tagged (natural protein)
[2]
  stoichiometry N: 2

## Rap2b (Resistance associated protein 2b), without its N-terminal signal peptide, His6-tagged (natural protein)
[3]
  stoichiometry N: 2

## Ssp1 (Secreted small protein 1), His6-tagged recombinant (natural protein)
[4]
  stoichiometry N (Ssp1 per Rap1a (molar)): 1

## Tsi1 (from UniProt Q9I2Q0)
[5]
  Kd: 3 nM

B1: Rap1b (Resistance associated protein 1b), without its N-terminal signal peptide, His6-tagged (natural protein)
chain: APIQDPVAFIKQMPYHQVVKELALSRCLAQVSDSDKAFSLDAARTANAMREWMPFDIESGDEKINVLIDKYKSRINEFHSETKDKSQGVTLNCLRLYHSPELDKLSRQLIAGNPDRTWNQDNAK
modifications: disulphide bond Cys54-Cys120
SEC
  stoichiometry N: 2
